These results are taken from PMC7435863, “Single Residue Substitution at N-Terminal Affects Temperature Stability and Activity of L2 Lipase” (Molecules, 2020).

Substrate in the data set: CCCCCCCCCC(=O)Oc1ccc([N+](=O)[O-])cc1
In words: pNP ester hydrolysis, Lineweaver-Burk. It counts as biochemical, Bacillus sp. L2. As to conditions: 70 °C (optimum temperature), 0.6-5.0 mM substrate. An excerpt: pNP ester hydrolysis, Lineweaver-Burk on wt-L2 lipase

B1: wt-L2 lipase (Bacillus sp. L2) (protein)
chain: ASLRANDAPIVLLHGFTGWGREEMFGFKYWGGVRGDIEQWLNDNGYRTYTLAVGPLSSNWDRACEAYAQLVGGTVDYGAAHAAKHGHARFGRTYPGLLPELKRGGRIHIIAHSQGGQTARMLVSLLENGSQEEREYAKAHNVSLSPLFEGGHHFVLSVTTIATPHDGTTLVNMVDFTDRFFDLQKAVLEAAAVASNVPYTSQVYDFKLDQWGLRRQPGESFDHYFERLKRSPVWTSTDTARYDLSVSGAEKLNQWVQASPNTYYLSFSTERTYRGALTGNHYPELGMNAFSAVVCAPFLGSYRNPTLGIDDRWLENDGIVNTVSMNGPKRGSSDRIVPYDGTLKKGVWNDMGTYNVDHLEIIGVDPNPSFDIRAFYLRLAEQLASLLP
notes: recombinant from pET32(B)+ in E. coli BL21(DE3), Ni Sepharose purified
For the protein B1, the Km (usually the concentration of substrate that gives half-maximal velocity) worked out at 1080 µM; the kcat – broadly, the maximal rate divided by the concentration of active sites – amounted to 175 s⁻¹; the kcat/Km (commonly the turnover number divided by the Michaelis constant) came out at 162000 M⁻¹ s⁻¹.

B2: wt-L2 lipase (Bacillus sp. L2; A36V) (protein)
chain: ASLRANDVPIVLLHGFTGWGREEMFGFKYWGGVRGDIEQWLNDNGYRTYTLAVGPLSSNWDRACEAYAQLVGGTVDYGAAHAAKHGHARFGRTYPGLLPELKRGGRIHIIAHSQGGQTARMLVSLLENGSQEEREYAKAHNVSLSPLFEGGHHFVLSVTTIATPHDGTTLVNMVDFTDRFFDLQKAVLEAAAVASNVPYTSQVYDFKLDQWGLRRQPGESFDHYFERLKRSPVWTSTDTARYDLSVSGAEKLNQWVQASPNTYYLSFSTERTYRGALTGNHYPELGMNAFSAVVCAPFLGSYRNPTLGIDDRWLENDGIVNTVSMNGPKRGSSDRIVPYDGTLKKGVWNDMGTYNVDHLEIIGVDPNPSFDIRAFYLRLAEQLASLLP
notes: as for B1
With B2, the Michaelis constant (Km) turned out to be 520 µM; the maximal velocity (Vmax) (in general, the rate approached at saturating substrate) was determined as 81300 µM/min; the kcat was determined as 136 s⁻¹; the specificity constant (kcat/Km) was 207000 M⁻¹ s⁻¹.

B3: wt-L2 lipase (Bacillus sp. L2; A36E) (protein)
chain: ASLRANDEPIVLLHGFTGWGREEMFGFKYWGGVRGDIEQWLNDNGYRTYTLAVGPLSSNWDRACEAYAQLVGGTVDYGAAHAAKHGHARFGRTYPGLLPELKRGGRIHIIAHSQGGQTARMLVSLLENGSQEEREYAKAHNVSLSPLFEGGHHFVLSVTTIATPHDGTTLVNMVDFTDRFFDLQKAVLEAAAVASNVPYTSQVYDFKLDQWGLRRQPGESFDHYFERLKRSPVWTSTDTARYDLSVSGAEKLNQWVQASPNTYYLSFSTERTYRGALTGNHYPELGMNAFSAVVCAPFLGSYRNPTLGIDDRWLENDGIVNTVSMNGPKRGSSDRIVPYDGTLKKGVWNDMGTYNVDHLEIIGVDPNPSFDIRAFYLRLAEQLASLLP
notes: as for B1
B3: the Km turned out to be 4380 µM, the Vmax came out at 71900 µM/min, the kcat was 120 s⁻¹ and the kcat/Km was 27200 M⁻¹ s⁻¹.

B4: wt-L2 lipase (Bacillus sp. L2; A36P) (protein)
chain: ASLRANDPPIVLLHGFTGWGREEMFGFKYWGGVRGDIEQWLNDNGYRTYTLAVGPLSSNWDRACEAYAQLVGGTVDYGAAHAAKHGHARFGRTYPGLLPELKRGGRIHIIAHSQGGQTARMLVSLLENGSQEEREYAKAHNVSLSPLFEGGHHFVLSVTTIATPHDGTTLVNMVDFTDRFFDLQKAVLEAAAVASNVPYTSQVYDFKLDQWGLRRQPGESFDHYFERLKRSPVWTSTDTARYDLSVSGAEKLNQWVQASPNTYYLSFSTERTYRGALTGNHYPELGMNAFSAVVCAPFLGSYRNPTLGIDDRWLENDGIVNTVSMNGPKRGSSDRIVPYDGTLKKGVWNDMGTYNVDHLEIIGVDPNPSFDIRAFYLRLAEQLASLLP
notes: as for B1
For B4, the Michaelis constant (Km) stood at 1340 µM, the Vmax is 76300 µM/min, the catalytic constant (kcat) came out at 127 s⁻¹ and the kcat/Km was 94900 M⁻¹ s⁻¹.
